Results as given in US20170306036A1 (ENGMAB, published 2017).
Where “and” joins values, the source holds several entries; their conditions need not be identical. Equal values may be shown once.

Legend:
[1] = biological target: T1, human BCMA stably expressed on HEK293T cells (huBCMA-HEK293T) (human, UniProt Q02223 1-184)
T1 sequence (looked up): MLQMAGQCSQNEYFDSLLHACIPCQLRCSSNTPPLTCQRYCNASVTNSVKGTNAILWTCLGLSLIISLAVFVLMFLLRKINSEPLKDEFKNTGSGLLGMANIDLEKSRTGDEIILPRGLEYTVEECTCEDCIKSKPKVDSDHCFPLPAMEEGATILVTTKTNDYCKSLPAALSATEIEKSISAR

[2] = biological target: T2, cynomolgus BCMA stably expressed on HEK293T cells (cynoBCMA-HEK293T) (cynomolgus, UniProt A0A2K5UD97 1-183)
[3] = biological target: T3, human BCMA on human myeloma cells (H929, L363, RPMI-8226, JJN-3, patient myeloma plasma cells) (human, UniProt Q02223 1-184)
T3 sequence (looked up): T1 sequence (looked up)

[4] = biological target: T2, cynomolgus BCMA stably expressed on …; experiment: cell-based or functional assay
[5] = biological target: T3, human BCMA on human myeloma cells …; experiment: cell-based or functional assay
[6] = biological target: T4, human CD3ε on Jurkat T cells (human, UniProt P07766 23-207); experiment: flow cytometry on CD3-positive Jurkat T cells
T4 construct: whole, on cells; On cells it is part of the TCR/CD3 complex; also called CD3-positive Jurkat T cells
Experimental: Jurkat T cells were cultured in RPMI supplemented with 10% heat-inactivated FCS. Briefly, cultured cells were harvested, counted and cell viability was evaluated using ViCell. Viable cells were then adjusted to 2×10⁶ cells per ml in FACS Stain Buffer (BD Biosciences) containing 0.1% BSA. 100 μl of this cell suspension were further aliquoted per well into a round-bottom 96-well plate. 30 μl of the anti-BCMA/anti-CD3 TCB antibodies or corresponding IgG control were added to the cell-containing wells to obtain final concentrations of 3 nM to 500 nM or 0.1 pM to 200 nM. Anti-BCMA/anti-CD3 TCB antibodies and control IgG were used at the same molarity. After incubation for 30 min at 4° C., cells were centrifuged (5 min, 350×g), washed twice with 150 μl/well BSA-containing FACS Stain Buffer (BD Biosciences), then cells were fixed using 100 ul BD Fixation buffer per well (#BD Biosciences, 554655) at 4° C. for 20 min, resuspended in 120 μl FACS buffer and analyzed using BD FACS Cantoll. Binding of the anti-BCMA/anti-CD3 TCB antibodies to T cells were evaluated and the median fluorescence intensity was determined gated on CD3-expressing Jurkat T cells and plotted in histograms or dot plots.

[7] = biological target: T3, human BCMA on human myeloma cells …; experiment: cell-based or functional assay; remark: listed apart in the source
[8] = biological target: T3, human BCMA on human myeloma cells …; experiment: cell-based or functional assay; remark: listed apart in the source
[9] = biological target: T5, recombinant human BCMA Fc(kih) (human, UniProt Q02223 4-53, biotinylated at the avi-tag at the C-terminus of the Fc knob chain ; Biotinylated in vivo (BirA) at the avi-tag at the C-terminus of the Fc knob chain. That part is not in the letters.); experiment: SPR (Biacore T200, 25 C), IgG captured on anti-human Fab chip, BCMA Fc(kih) as analyte, 1:1 Langmuir fit
T5 construct: Monomeric Fc fusion made by knobs-into-holes; also called huBCMA Fc(kih); biotinylated human BCMA; not shown: Human IgG1 hinge-Fc knob chain with C-terminal avi-tag, and the unfused human IgG1 Fc hole chain
Experimental: The affinity of the interaction between anti-BCMA antibodies and recombinant human BCMA Fc(kih) was also determined. Anti-human Fab antibody (GE Healthcare) was directly coupled on a CMS chip at pH 5.0 using the standard amine coupling kit (Biacore, Freiburg/Germany). The immobilization level was about 6500 RU. […] Recombinant human BCMA Fc(kih) was passed at a […] concentration range (1.95 to 500 nM) with a flow of 30 μL/minutes through the flow cells over 120 seconds. The dissociation was monitored for 120 seconds. Bulk refractive index differences were corrected for by subtracting the response obtained on reference flow cell. […] Kinetic constants were derived using the Biacore T100 Evaluation Software (vAA, Biacore AB, Uppsala/Sweden), to fit rate equations for 1:1 Langmuir binding by numerical integration (Table 7).

[10] = biological target: T5, recombinant human BCMA Fc(kih); experiment: competition ELISA: 500 or 1000 nM Fab on plate-bound biotinylated human BCMA; competitor murine APRIL 50 nM/1200 ng/mL; bound Fab read as OD450
Experimental: 500 nM or 1000 nM purified Fabs were added to saturate the coated human BCMA for 1 h at room temperature. […] The plate was washed 3 times with PBS and anti-FLAG-HRP secondary antibody (1:4000) was added for 1 h. Again, the plate was washed 3 times with PBS and developed by adding 100 ul/well BM Blue POD (Roche). The reaction was stopped by adding 50 ul/well 1M H₂SO₄ and the OD was read at 450 nm (reference at 650 nm) for a final read-out of OD₄₅₀₋₆₅₀.

[11] = biological target: T5, recombinant human BCMA Fc(kih); experiment: SPR (ProteOn XPR36, 25 C), biotinylated BCMA Fc(kih) on NLC chip, Fab as analyte, monovalent affinity
Experimental: Buffer (PBST) was injected along the sixth channel to provide an “in-line” blank for referencing. Association rate constants (kon) and dissociation rate constants (koff) were calculated using a simple one-to-one Langmuir binding model in ProteOn Manager v3.1 software by simultaneously fitting the association and dissociation sensorgrams. The equilibrium dissociation constant (KD) was calculated as the ratio koff/kon.

T2 sequence (A0A2K5UD97 entry or part of it): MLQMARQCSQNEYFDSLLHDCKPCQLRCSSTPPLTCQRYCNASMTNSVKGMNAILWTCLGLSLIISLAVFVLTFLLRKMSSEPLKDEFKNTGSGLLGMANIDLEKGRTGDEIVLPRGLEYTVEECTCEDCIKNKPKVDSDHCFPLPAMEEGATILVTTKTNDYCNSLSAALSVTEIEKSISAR
T4 sequence (P07766 23-207): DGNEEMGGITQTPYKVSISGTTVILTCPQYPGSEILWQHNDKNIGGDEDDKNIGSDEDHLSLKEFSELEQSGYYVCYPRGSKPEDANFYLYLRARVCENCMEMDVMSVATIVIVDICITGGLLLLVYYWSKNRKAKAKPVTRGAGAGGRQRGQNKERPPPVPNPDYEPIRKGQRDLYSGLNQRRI

B1: 83A10-TCBcv (anti-BCMA/anti-CD3 T cell bispecific antibody, 2+1 Fc-containing, with charge variant) (bispecific antibody, human IgG1, kappa, L234A L235A)
heavy 1: not shown
heavy 2: not shown
light 1: EVQLLESGGGLVQPGGSLRLSCAASGFTFSTYAMNWVRQAPGKGLEWVSRIRSKYNNYATYYADSVKGRFTISRDDSKNTLYLQMNSLRAEDTAVYYCVRHGNFGNSYVSWFAYWGQGTLVTVSSASVAAPSVFIFPPSDEQLKSGTASVVCLLNNFYPREAKVQWKVDNALQSGNSQESVTEQDSKDSTYSLSSTLTLSKADYEKHKVYACEVTHQGLSSPVTKSFNRGEC
light 2: not shown
notes: also called 83A10-TCVcv
EC50 [1]: 15.6 nM
EC50 [2]: 7.8 nM
EC50 [3]: ~17.4 nM and ~2.51 µg/mL
EC50 of lysis of cynoBCMA-HEK cells (LDH release), cyno PBMCs donor 1 [4]: 0.0035 nM
EC50 of lysis of cynoBCMA-HEK cells (LDH release), cyno PBMCs donor 2 [4]: 0.0027 nM
mean EC50 of lysis of cynoBCMA-HEK cells (LDH release) [4]: 0.0031 nM
EC50 for reduction of viable (annexin-V negative) myeloma plasma cells, bone marrow aspirate Patient 001 [5]: 1 nM
EC50 for reduction of viable (annexin-V negative) myeloma plasma cells, bone marrow aspirate Patient 002 [5]: 8.24 nM
EC50 for reduction of viable (annexin-V negative) myeloma plasma cells, bone marrow aspirate Patient 003 [5]: 8.02 nM
binding result [6]: binds
EC50 of redirected T-cell killing of RPMI-8226 cells (LDH release), Donor 2 [7]: 0.621 nM
EC50 of redirected T-cell killing of RPMI-8226 cells (LDH release), Donor 3 [7]: 0.229 nM
EC50 of redirected T-cell killing of RPMI-8226 cells (LDH release), Donor 4 [7]: 0.035 nM
EC50 of redirected T-cell killing of RPMI-8226 cells (LDH release), Donor 5 [7]: 0.0649 nM
EC50 of Granzyme B secretion, PBMC + RPMI-8226 cells (CBA) [8]: 0.34 nM
EC50 of IL-10 secretion, PBMC + RPMI-8226 cells (CBA) [8]: 0.3 nM
EC50 of TNF-α secretion, PBMC + RPMI-8226 cells (CBA) [8]: 0.52 nM

B2: 17A5-TCBcv (anti-BCMA/anti-CD3 T cell bispecific antibody, 2+1 Fc-containing, with charge variant) (bispecific antibody, human IgG1, kappa, L234A L235A)
heavy 1: not shown
heavy 2: not shown
light 1: B1 light 1
light 2: not shown
binding result [6]: binds

B3: 13A4 anti-BCMA IgG (antibody, V domains shown)
VH: EVQLVQSGAEVKKPGESLKISCKGSGYSFTSYWIGWVRQMPGKGLEWMGIIYPGDSDTRYSPSFQGQVTISADKSISTAYLQWSSLKASDTAMYYCARNGYLGDYWGQGTLVTVSS
VL: not shown
notes: also called anti-BCMA antibody clone 13A4; MAB 13A4
Kd [9]: 5.1 nM
koff [9]: 0.00036 s⁻¹
kon [9]: 72000 M⁻¹ s⁻¹

B4: anti-BCMA Fab clone 13A4 (Fab, V domains shown)
VH: B3 VH
VL: not shown
notes: Phage-display Fab (Vk2D_28/VH5_1), bacterially expressed
reduction in OD (450 nm) in absence vs. presence of murine Δ-APRIL [10]: 13.1%
Kd [11]: 1.8 nM
